Measured values from US6429014B1, “Monoterpene synthases from grand fir (Abies grandis)” (Washington State University Research Foundation, priority 1997, dated 2002).

B1: ag6: recombinant (−)-camphene synthase from Grand fir encoded by clone ag6 (SEQ ID NO:64; protein SEQ ID NO:65) (protein, listed as Abies grandis)
chain: MALLSITPLVSRSCLSSSHEIKALRRTIPTLGICRPGKSVAHSINMCLTSVASTDSVQRRVGNYHSNLWDDDFIQSLISTPYGAPDYRERADRLIGEVKDIMFNFKSLEDGGNDLLQRLLLVDDVERLGIDRHFKKEIKTALDYVNSYWNEKGIGCGRESVVTDLNSTALGLRTLRLHGYTVSSDVLNVFKDKNGQFSSTANIQIEGEIRGVLNLFRASLVAFPGEKVMDEAETFSTKYLREALQKIPASSILSLEIRDVLEYGWHTNLPRLEARNYMDVFGQHTKNKNAAEKLLELAKLEFNIFHSLQERELKHVSRWWKDSGSPEMTFCRHRHVEYYALASCIAFEPQHSGFRLGFTKMSHLITVLDDMYDVFGTVDELELFTATIKRWDPSAMECLPEYMKGVYMMVYHTVNEMARVAEKAQGRDTLNYARQAWEACFDSYMQEAKWIATGYLPTFEEYLENGKVSSAHRPCALQPILTLDIPFPDHILKEVDFPSKLNDLICIILRLRGDTRCYKADRARGEEASSISCYMKDNPGLTEEDALNHINFMIRDAIRELNWELLKPDNSVPITSKKHAFDISRVWHHGYRYRDGYSFANVETKSLVMRTVIEPVPL
B2: ag9: recombinant terpinolene synthase from Grand fir encoded by clone ag9 (SEQ ID NO:77; protein SEQ ID NO:78) (protein, listed as Abies grandis)
chain: MALVSILPLSSKSVLHKSWIVSTYEHKAISRTIPNLGLRGRGKSVTHSLRMSLSTAVSDDHGVQRRIVEFHSNLWDDDFIQSLSTPYGAPSYRERADRLIVEVKGIFTSISAEDGELITPLNDLIQRLLMVDNVERLGIDRHFKNEIKAALDYVYSYWNEKGIGSGSDSGVADLNSTALGFRILRLHGYSVSSDVLEHFKEEKEKGQFVCSAIQTEEEIKSVLNLFRASLIAFPGEKVMEEAEIFSKIYLKEALQNIAVSSLSREIEYVLEDGWQTNMPRLETRNYIDVLGENDRDETLYMNMEKLLEIAKLEFNIFHSLQQRELKDLSRWWKDSGFSHLTFSRHRHVEFYALASCIETDRKHSGFRLGFAKMCHLITVLDDIYDTFGTMEELELFTAAFKRWDPSATDLLPEYMKGLYMVVYETVNEIAREADKSQGRETLNDARRAWEAYLDSYMKEAEWISSGYLPTFEEYMETSKVSFGYRIFALQPILTMDVPLTHHILQEIDFPLRFNDLICSILRLKNDTRCYKADRARGEEASCISCYMKENPGSTEEDAINHINAMVNNLIKEVNWELLRQDGTAHIACKKHAFDILKGSLHGYKYRDGFSVANKETKNWVRRTVLESVPL

Experiment: Terpene synthase assay and GC-MS / chiral GC product identification of recombinant enzymes expressed from pSBET in E. coli BL21(DE3) (Example 11)
Assay type: biochemical
Experimental: For functional expression, bacterial strains E. coli BL21(DE3)/pSAG2(M), E. coli BL21(DE3)/pSAG2(R), E. coli BL21(DE3)/pSAG3(R), E. coli BL21(DE3)/pSAG6(M), E. coli BL21(DE3/pSAG6(R), E. coli BL21(DE3)/pSAG8(M), E. coli BL21(DE3)/pSAG9(M), E. coli BL21(DE3)/pSAG11(M) and E. coli BL21(DE3)/SAG11(R) were grown to A600=0.5 at 37° C. in 5 ml of Luria-Bertani medium (Sambrook, J., Fritsch, E. F., and Maniatis, T. (1989) Molecular Cloning: A Laboratory Manual, 2nd Ed., pp. 7.20-7.43, Cold Spring Harbor, N.Y.) supplemented with 30 μg kanamycin/ml. Cultures were then induced by addition of 1 mM isopropyl-1-thio-β-D-galactopyranoside and grown for another 12 h at 20° C. Cells were harvested by centrifugation and disrupted by sonication followed by centrifugation, and the resulting soluble enzyme preparations were assayed for monoterpene, sesquiterpene and diterpene synthase activity using the appropriate radiolabeled substrate as described previously (Bohlmann, J., Steele, C. L., and Croteau, R. (1997) J. Biol. Chem. 272, 21784-21792). This assay involves the isolation and separation of terpene olefins and oxygenated terpenes by column chromatography on silica, followed by scintillation counting to determine conversion rate. GC-MS analysis is employed for product identification, by comparison of retention times and mass spectra to those of authentic standards (Bohlmann, J., Steele, C. L., and Croteau, R. (1997) J. Biol Chem. 272, 21784-21792); assignment of absolute configuration is based upon chiral column capillary GC and matching of retention time to that of the corresponding enantiomer (Lewinsohn, E., Savage, T. J., Gijzen, M., and Croteau, R. (1993) Phytochem. Anal. 4, 220-225). To insure production of sufficient material for identification, the standard assay (Bohlmann, J., Steele, C. L., and Croteau, R. (1997) J. Biol. Chem. 272, 21784-21792) was scaled up by a factor of 20.
Initially, the four pSBET plasmids pSAG6(M), pSAG8(M), pSAG9(M) and pSAG11(M), containing the full-length cDNA inserts of ag6 (SEQ ID NO:64), ag8 (SEQ ID NO:66), ag9 (SEQ ID NO:77) and ag11 (SEQ ID NO:68), respectively, were expressed in E. coli BL21(DE3). Extracts of the induced, transformed bacterial cells were assayed for monoterpene, sesquiterpene and diterpene synthase activity using the corresponding labeled C10, C15 and C20 prenyl diphosphate substrates (Bohlmann, J., Steele, C. L., and Croteau, R. (1997) J. Biol. Chem. 272, 21784-21792). […] Since it is known that the relatively large amino-terminal transit peptide of plant terpene synthases can impair expression of the functional preprotein in E. coli and promote the formation of intractable inclusion bodies (Williams, D. C., McGarvey, D. J., Katahira, E. J., and Croteau, R. (1998) Biochemisiry 37, 12213-12220), the“pseudomature” forms of ag6 (SEQ ID NO:64) and ag11 (SEQ ID NO:68) were prepared by truncation of the cDNAs to insert a starting methionine immediately upstream of their tandem arginine elements (R59R 60 for ag6 (SEQ ID NO:64), R^71R^72 for ag11 (SEQ ID NO:68)) for expression in E. coli BL21(DE3)/pSAG6(R) and E. coli BL21(DE3)/pSAG11(R). Similar truncations of previously characterized ag2.2 (SEQ ID NO:1) (myrcene synthase, R^64R^65) and ag3.18 (SEQ ID NO:3) ((−)-pinene synthase, (SEQ ID NO:5) R^64R^65) (Bohlmann, J., Steele, C. L., and Croteau, R. (1997) J. Biol. Chem. 272, 21784-21792) were prepared for expression from pSBET as controls for the possible alteration of product yield and distribution resulting from truncation.
Monoterpenes generated at preparative scale from geranyl diphosphate by the recombinant enzymes encoded by ag6 (SEQ ID NO:64), ag8 (SEQ ID NO:66), ag9 (SEQ ID NO:77) and ag11 (SEQ ID NO:68) were analyzed by GC-MS and chiral phase (β-cyclodextrin) capillary GC, and identified by comparison of retention times and mass spectra to authentic standards (FIGS. 6-9). […] The enzyme encoded by ag6 (SEQ ID NO:65) is therefore designated as (−)-1S,4R-camphene synthase. […]

[1] = from geranyl diphosphate, preparative scale

Row | Molecule | (−)-1S,4R-camphene share of monoterpene products [1] [%] | (−)-1S,5S-α-pinene share of monoterpene products [1] [%] | (−)-4S-limonene share of monoterpene products [1] [%] | prenyl diphosphate substrate yielding terpene olefin products (C10, C15, C20 tested) (truncated forms pSAG6(R), pSAG11(R) in E. coli BL21(DE3)) | terpene synthase activity on expression from pSBET in E. coli BL21(DE3) (extracts of induced cells) | (−)-1S,5S-β-pinene share of monoterpene products [1] [%] | terpinolene share of monoterpene products [1] [%]
1 | B1 | 54 | 32 | 7 | only geranyl diphosphate yielded high levels of terpene olefin products | – | – | –
2 | B2 | – | 18 | 11 | – | Enzymatic production of terpene olefin(s) was observed | 10 | 42
